From article PMC3315481, “Phosphorylation of the Drosophila melanogaster RNA–Binding Protein HOW by MAPK/ERK Enhances Its Dimerization and Activity” (PLoS Genetics, 2012)
Changes are numbered by the printed parent chain. Names and notes keep the numbering of the source.

B1: Held Out Wings, long isoform, phospho-mutant T59A T64A (HOW(L)^TTAA) (natural protein, Drosophila melanogaster, UniProt O01367 1-405, looked up)
chain: MSVCESKAVVQQQLQQHLQQQAAAAVVAVAQQQQAQAQAQAQAQAQQQQQAPQVVVPMAPQHLAPQQQQQSTQSIADYLAQLLKDRKQLAAFPNVFTHVERLLDEEIARVRASLFQINGVKKEPLTLPEPEGSVVTMNEKVYVPVREHPDFNFVGRILGPRGMTAKQLEQETGCKIMVRGKGSMRDKKKEDANRGKPNWEHLSDDLHVLITVEDTENRATVKLAQAVAEVQKLLVPQAEGEDELKKRQLMELAIINGTYRDTTAKSVAVCDEEWRRLVAASDSRLLTSTGLPGLAAQIRAPAAAPLGAPLILNPRMTVPTTAASILSAQAAPTAAFDQTGHGMIFAPYDYANYAALAGNPLLTEYADHSVGAIKQQRRLATNREHPYQRATVGVPAKPAGFIEIQ
notes: Held Out Wings (HOW), isoform HOW(L), Drosophila melanogaster, with T59 and T64 mutated to alanine; Two differently tagged copies met in the co-IP: one fused to GFP (bait, vector pTGW) and one tagged with HA (prey, vector pTWH); also called HOW^TTAA; gfp-how(l)^TTAA; source: S2R+ cells, co-transfected, in lysate
B2: Held Out Wings, long isoform, dimerization mutant E106G (HOW(L)^EG) (natural protein, Drosophila melanogaster, UniProt O01367 1-405, looked up)
chain: B1 chain with A59T, A64T, E106G
notes: Held Out Wings (HOW), isoform HOW(L), Drosophila melanogaster, with E106 mutated to glycine; Two differently tagged copies met in the co-IP: one fused to GFP (bait, vector pTGW) and one tagged with HA (prey, vector pTWH); also called HOW^EG; gfp-how(l)^EG; source: S2R+ cells, co-transfected, in lysate

Target: the molecule itself
Test: co-IP; S2R+ cells co-transfected with GFP-fused and HA-tagged HOW(L) variants (or gfp with how(l)^WT-HA); lysis in 1% NP40 buffer (50 mM Tris pH 7.5, 100 mM NaCl); IP with mouse anti-GFP on protein A/G beads 1-2 h at 4°C; Western blot with anti-HOW; co-precipitated HA protein normalised to its crude level and to the precipitated GFP protein

Protein | co-immunoprecipitated HA protein, normalised, relative to HOW(L)^WT
B1 | 0.56 ± 0.14
B2 | 0.13 ± 0.04
